This is an account of results in patent EP4524159A1, “ANTIBODY AND USE THEREOF” (Sichuan Huiyu Pharmaceutical Co., Ltd., priority 2022, dated 2023).

The IC50 is the midpoint of a concentration-inhibition curve. A lower IC50 goes with greater potency.

The labels stand for the following.
T1: HuCDCP1-B (human) (UniProt Q9H5V8)
T1 sequence (looked up): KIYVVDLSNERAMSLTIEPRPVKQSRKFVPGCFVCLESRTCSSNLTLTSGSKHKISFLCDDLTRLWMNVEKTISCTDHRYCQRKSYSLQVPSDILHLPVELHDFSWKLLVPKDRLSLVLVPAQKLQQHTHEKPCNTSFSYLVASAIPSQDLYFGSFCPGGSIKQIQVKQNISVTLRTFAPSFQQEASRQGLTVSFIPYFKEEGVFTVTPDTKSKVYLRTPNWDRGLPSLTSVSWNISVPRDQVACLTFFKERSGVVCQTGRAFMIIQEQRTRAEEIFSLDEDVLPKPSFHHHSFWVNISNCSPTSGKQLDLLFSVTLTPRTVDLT

B1: SB5 (antibody, V domains shown)
VH: QVQLRESGPGLVAPSQSLSITCTVSGFSLTDFGVNWVRQPPGKGLEWLGIIWANGRIEYNSALKSRLSISKDNSRSQVFLKLNSLQTDDTARYYCARDHDYDVEAMDYWGQGTSVTVSA
VL: QIVLTQSPAIKSASPGEKVTMTCSASSSVIYMHWYQQKSGSSPKRWIYDTSKLASGVPVRFSGSGSGTSYSLTISTMEAEDAATYYCQQWSSYPPTFGGGTKVEIK
B2: G10F6-MMAE (conjugate)
VH: EVKLVESGPGILQPSQTLSLTCSFSGFSLSTSGMGVSWVRQPSGKGLEWLAHIYWDDDKRYNPSLKGRLTISKDTPRNQVFLEITSVDTTDTATYYCARVPGNWDEDAMDYWGQGTTVTVSS
VL: DIQMTQSPLSLPVSLGDQASISCRSSQNIVHTNGNTYLEWYLQKVGQSPKLLIYKVSNRFSGVPDRFSGSGSGTDFTLKISRVEAEDLGVYYCFQGSHVPYTFGGGTKLEIK
B3: 8E5-MMAE (conjugate)
VH: EVQLKESGPELKKPGETVKISCKASGYTLTDFSMHWLKQAPGKGLKWMGWINTETGAPTYADDFKGRFALSLDTSANTAYLQINNLKNEDTATYFCSRGRDYDPHFDYWGQGTTVTVSS
VL: EIVLTQSPATLSVTPGDRVSLSCRASQSISDFLHWYQQRSHESPRLLIKYASQSISGIPSRFGGSGSGSDFTLNINTVEPEDVGMYYCQSAHSFPYTFGGGTKLEIK
B4: 6A7-MMAE (conjugate)
VH: EVQLKESGAELVRPGASVKVSCKASGYSFTSYWMNWVKQRPGQGLEWIGMIHPSDSETKLNQKFRDRASLTVDKSSSTAYMQLSSPTSEDSAVYYCTINYESFYYAMDYWGQGTTVTVSS
VL: DIVMTQSPASLAVSLGQRATISCRASKSVSTSGYSYMHWYQQKPGQPPKLLLYLASNLESGVPARFSGSGSGADFTLNIHPVEEEDAATYYCLHSRELPYTFGGGTKLEIK
B5: 3C11-MMAE (conjugate)
VH: EVQLQQSGTVLARPGASVKMSCKASGYNFISYWLHWIKQRPGQGLEWIGGIYPGNTDTTYNQKFKGKAKVTAVTSATTAYMELSSLTNEDSAVYYCIRYDYDRGMDYWGQGTTVTVSS
VL: DIQMTQSPSSFSVSLGDRVTITCRASEDIYYRLAWYQQKPGNAPRLLISGATALETGVPSRFSGSGSGKDYTLSITSLQTEDVATYYCQHYWNIPWTFGGGTKLEIK
B6: 3B 12H5-MMAE (conjugate)
VH: EVQLQQSGTVLARPGASVKMSCKASGYSFTIYWVHWVKQRPGQGLEWIGAVYPGNDDTSYNQNFKGKAKLTAVTSATTAYMELSSLTIDDSAVYYCTRHTYDEVFDYWGQGTTVTVSS
VL: B5 VL with Q3V, F11L, R24K, A51G, A53N, T56A, V58I, T85I, I94T
B7: 10D2-MMAE (conjugate)
VH: EVQLQQSGPELKKPGETVKISCKASGYTFTDYSMHWVKQAPGKGLKWMGWINTETGQPTYADDFKGRFAFSLETSASSAYLQINNLKNEDTATYFCTRTFYYDYVGDYWGQGTTVTVSS
VL: DIVMTQSHKFMSTSVGDRVSITCKASQDVSTAVAWYRQKPGQSPKLLIYWASTRHTGVPDRLTGSGSGTDFALTINSVQAEDLALYYCQQHSSTPYTFGGGTKLEIK
B8: SB7 (antibody, V domains shown)
VH: QVQLQQSGPELVSPGESVKISCKGSGYTFTDYAVHWVKQSHSKSLEWIGVKSVYYGITKYSQNFKDKATMTVDKSSSTAYMELARLTSEDSAIYYCARDSYGSSRGYFDYWGQGTTLTVSS
VL: DIKMTQSPSSIYVSPGERVTITCKASQDINSFLSWFQQKPGKSPKTLIYRANRLVDGVPSRFSGSGSGQDYSLTISSLEYEDMGIYYCLQYDEFPRTFGGGTKLEIK
B9: SB1 (antibody, V domains shown)
VH: QVQLQQSGPDLVRPGESVKISCKGSGYTFTDHAIHWVRQSHAKSLEWIGVISFSYDNTKYNQNFKGKATMTVDKSSNTAYMELARLTSEDSAIYYCARDCYGSNRGYFDYWGQGTTLTVSS
VL: DIRMTQSPSSMYASLGERVTITCKASQDINRFLSWFLQRPGKAPKTLIYRANNLVEGVPSRFSGSGSGQDYSLIISNLEYEDMGIYYCLQYDEFPRTFGGGTKLEIK
B10: SB6 (antibody, V domains shown)
VH: QGQMQQSGAELVKPGASVKLSCKTSGFTFNSSYITWLKQKPGQSLEWIAWIFAGTGGTYYNEKFTDKAQLTVDTTSSTAYMQFSSLTTEDSAIYYCARHGLGYDYWGQGTTLTVSS
VL: SIVMTQTPKFLLVSAGDRVTITCKASQSVNTDVAWYQQKSGQSPKLLIYSASNRYTGVPDRFTGSGYGTDFTFTISTVQAEDLAVYFCQQDHSSPPWTFGGGTKLEIK
B11: SB4 (antibody, V domains shown)
VH: QVQLQQSGAELVRPGTSVKISCKASGYTFTNYWLGWVKQRPGHGLEWIGDNYPGDNYRNFNEKFKGKATLTTDASSSTAYLQLSSLISEDSAVYFCTRSGGSRYYTMDYWGQGTSVTVSS
VL: DIVMTQAAFSNPVTLGTSASISCRSSRSLLHNNGITYLYWYLQKPGQSPQLLIYQMSNLASGVPDRFHSSGSGTDFTLSISRVEAEDVGVYYCAQNLDLPYTFGGGTKLEIK

Changes are numbered by the printed parent chain.

For the first data set, the target named is T1, HuCDCP1-B (human). The data set can be described thus: ELISA, HuCDCP1-B coated 2 ug/ml.
Conditions: not given
B1 gave an ELISA of 0.208 nM.

In a further data set the test system is MCF7. The data set can be described thus: In vitro killing by chimeric antibody-vc-MMAE conjugate (CellTiter-Glo, 120 h). It is filed as cell-based. Particulars: MCF7 (120 h), cells that do not express CDCP1. The procedure:
The inhibition activity of antibody on tumor cell growth was calculated by graphpad fitting based on the signal value and antibody concentration, and the results are shown in FIG. 5 and Table 15. Table 15 IC50 value of anti-CDCP1 chimeric antibody -vcMMAE conjugate on tumor cells
For the molecule B2, the IC50 is above 200 nM.
The same measure, in the same setting: next, B3: around 200 nM.

Tested on in a further data set: not listed separately
The data set can be described thus: Drug : antibody ratio (DAR) of antibody-vc-MMAE conjugates by hydrophobic HPLC. Particulars: chimeric antibody-vc-MMAE conjugates. Here is the method: The specific operation was to reduce each antibody and the control antibody CD27H10 (27H10 antibody in WO2018112334A1) with a 2-fold molar amount of […] (TECP) at 4 °C for 1 hour. A 7-fold molar amount of vcMMAE was then added for ligation at 4-25 °C for 1 h, and then the reaction mixture was dialyzed against 1 × PBS pH 8.0 and filtered for sterilization. Drug : antibody ratio (DAR) was detected by hydrophobic kurtosis with HLPC, and the molecular coupling results are shown in Table 14. Table 14 DAR values of antibody-drug conjugates
The humanized antibodies 1CP-125, 1CP-117 and 1CP-152 were subjected to linking to form ADC, and the linking process was the same as in example 18. Table 18 DAR values of antibody-drug conjugates
With B4, the DAR was determined as 3.6.
B2: the DAR stood at 3.6.
B5: the DAR turned out to be 3.48.
The same measure, in the same setting: next, B6: 3.2; B3: 3.65.
As to B7, the DAR came to 3.5.

The same data set, now with this note: share of DAR2 species.
As for B4, the “DAR2 (%)” value was determined as 24.99%.
For the molecule B2, the “DAR2 (%)” value turned out to be 32.59%.
Same read-out and setting: next, B5: 33.89%.
Take B6: the “DAR2 (%)” value amounted to 29.966%.
On the same count and under the same terms, next, B3: 32.01%; B7: 34.10%.

Staying with this data set, now noted: share of DAR4 species.
Take B4: the “DAR4 (%)” value is 38.25%.
As to B2, the “DAR4 (%)” value is on record as 35.66%.
Still for that read-out and setting: next, B5: 28.50%; B6: 37.81%; B3: 37.12%.
As for B7, the “DAR4 (%)” value was 39.38%.

Staying with this data set, now noted: share of DAR6 species.
As for B4, the “DAR6 (%)” value came to 12.28%.
Same read-out and setting: next, B2: 12.02%.
Consider B5, for which the “DAR6 (%)” value stood at 8.28%.
Still for that read-out and setting: next, B6: 7.324%.
Still for that read-out and setting: the same measure for B3: 11.15%; for B7: 10.24%.

Staying with this data set, now noted: share of DAR8 species.
On to B4, for which the “DAR8 (%)” value was 5.30%.
As to B2, the “DAR8 (%)” value is on record as 10.04%.
Same read-out and setting: the same measure for B5: 9.09%.
Take B6: the “DAR8 (%)” value is 1.741%.
On to B7, for which the “DAR8 (%)” value is 8.00%.

For a further data set, the target named is HuCDCP1-C (human) (UniProt Q9H5V8). The data set can be described thus: ELISA, HuCDCP1-C coated 2 ug/ml.
Conditions: not given
As to B8, the ELISA was 0.034 nM.
Same read-out and setting: the same measure for B9: 0.092 nM.
Consider B10, for which the ELISA amounted to 0.027 nM.
For the molecule B1, the ELISA was 0.413 nM.
B11 displayed an ELISA of 0.071 nM.
